# Publication PMC5583966, “Sustained-release study on Exenatide loaded into mesoporous silica nanoparticles: in vitro characterization and in vivo evaluation” (DARU Journal of Pharmaceutical Sciences, 2017)
# Columns and labels:
# [1] = system: STZ-induced type 2 diabetic ICR mice (blood glucose); test: In vivo pharmacodynamics study: blood glucose of STZ-induced type 2 diabetic mice; conditions: s.c., EXT 3 μg/kg/d twice daily, days 0-25, measured before administration, n = 6
# Protocol: Type 2 diabetes model was induced by STZ with multiple injection method into ICR mice. Each mouse was injected intraperitoneally with 30 mg/kg⋅d STZ in 0.1 mol/L citric acid buffer (pH 5.0). One week after the injection, mice were fasted for 12 h (with free access to water) before their blood glucose was measured by glucometer (Accu-Chek Performa, Germany). Diabetic mice were considered by fasting blood glucose above 11.1 mmol/L. Six healthy normal ICR mice were used as the blank control group (A). Twenty-four mice that had developed type 2 diabetes were randomly divided into four experimental groups and received s.c. administration of saline (B), EXT-Sol (C), EXT-SBA-15 (D) and SBA-15 (E), respectively. Group A and B received saline twice daily via s.c. administration. Group C received EXT-Sol twice daily with a dose of EXT (3 μg/kg/d). Group D and E were administrated a single injection of EXT-SBA-15 (600 μg/kg) and SBA-15 via s.c. administration, respectively. The blood sample (about 0.2 ml) was collected from the tail-vein on days 0, 1, 5, 10, 15, 20, 25 for all groups, and blood glucose levels were determined measured simultaneously with a glucometer before administration.
# [2] = Pharmacokinetics study after s.c. injection in SD rats; assay type: in vivo
# Protocol: Pharmacokinetic studies of EXT-Sol and EXT-SBA-15 were conducted in healthy male SD rats. Sixteen rats were randomly divided into two groups (n = 8) and fasted overnight with free access to water before administration. SD rats were received s.c. administration of EXT-Sol and EXT-SBA-15 at a single EXT dose of 50 μg/kg, respectively. The blood samples (0.5 mL) of EXT-Sol treatment group were collected from the rat’s orbit and at specific time 0, 0.25, 0.5, 1, 1.5, 2, 3, 4, 6, 8 h after injection. The blood samples (0.5 mL) of EXT-SBA-15 treatment group (0.5 mL) were collected at 0, 0.5, 1, 1.5, 2, 3, 5, 8, 12, 24, 36, 48, 72, 120 h. The collected blood samples were centrifuged at 503×g for 10 min to obtain the plasma, which were stored at −80 °C for further analysis. The plasma concentrations of EXT were measured by Exendin-4 ELISA kit according to the instructions supplied by the manufacturer. The relevant pharmacokinetic parameters were analyzed by PKSolver 2.0 [25].
# [3] = single EXT dose 50 μg/kg, plasma, Exendin-4 ELISA, Mean ± SD, n = 8
# [4] = single EXT dose 50 μg/kg, plasma, Exendin-4 ELISA, two-compartment model, Mean ± SD, n = 8
substance,measurement,setting,value
"EXT-Sol: Exenatide (EXT) solution, injected s.c. as comparator","long-term glucose lowering effect, up to 25 days",[1],not observed
same,time at which plasma concentration had decreased to baseline,[2]; EXT dose 50 μg/kg,8 h
same,AUC0→t,[2]; [3],1.71 ± 0.07 ng⋅ml^−1⋅h
same,AUC0→∞,[2]; [3],1.71 ± 0.07 ng⋅ml^−1⋅h
same,MRT mean residence time,[2]; [3],1.14 ± 0.07 h
same,c max peak concentration,[2]; [3],1.16 ± 0.09 ng⋅ml^−1
same,t 1/2(α) half-life of distribution,[2]; [4],13.2 ± 1.8 min
same,t 1/2(β) half-life of elimination,[2]; [4],36 ± 4.8 min
